Assays:
[1] = test system: T1, equistatin, isolated from sea anemone Actinia equina
T1 sequence: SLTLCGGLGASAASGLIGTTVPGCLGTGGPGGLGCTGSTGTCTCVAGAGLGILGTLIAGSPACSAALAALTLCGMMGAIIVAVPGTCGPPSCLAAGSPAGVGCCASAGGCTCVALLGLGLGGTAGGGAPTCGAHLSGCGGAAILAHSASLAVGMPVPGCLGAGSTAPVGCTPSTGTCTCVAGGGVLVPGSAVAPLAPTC

[2] = molecular target: western corn rootworm (Diabrotica virgifera) third instar larval gut proteases; assay: cell-based or functional assay
[3] = molecular target: Colorado potato beetle larval gut proteases (total gut extract, pH 3); assay: cell-based or functional assay
papain [4] = molecular target: T2, papain (UniProt P00784 134-345); assay: papain titration in microtiter plate, Z-Phe-Arg-pNA substrate
T2 construct: also called cysteine proteinase, papain
T2 sequence (looked up): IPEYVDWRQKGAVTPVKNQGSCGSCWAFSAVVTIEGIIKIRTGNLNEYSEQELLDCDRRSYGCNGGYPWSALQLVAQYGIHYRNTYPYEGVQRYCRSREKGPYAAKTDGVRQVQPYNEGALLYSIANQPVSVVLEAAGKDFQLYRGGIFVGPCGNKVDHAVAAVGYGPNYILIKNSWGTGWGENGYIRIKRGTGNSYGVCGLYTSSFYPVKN
Description: In a microtiterplate 20 µl papain solution (a fresh solution of 1 mg/ml (Sigma) in MES buffer titrated with E-64 to determine the active fraction, usually 17%) is combined with 0–80 µl of known protein concentration. MES buffer (50 mM MES, pH 6.5; 0.6 mg/ml L-cysteine; 1 mg/ml BSA fraction V) is added to a final volume of 150 µl. The mixture is incubated for 30 min at room temperature and subsequently 50 µl of substrate solution (60 µl of 15 mg/ml Z-Phe-Arg-pNA dissolved in methanol is diluted in 940 µl MES buffer before use). The plate is immediately placed in the nicrotiterplate reader and measured at 405 nm. Readings up to an OD600 of 0.3 are linear. Rates of change are used to determine the activity with increasing amounts of inhibitor. Results are graphically represented and at stoichiometric concentrations the amount of dissociated complex is determined to determine the apparent equilibrium dissociation constant (Ki). […] The apparent equilibrium dissociation constant for papain was estimated to be 0.6 nM in agreement with the data published for the purified protein (Lenarcic et al. (1997) J. Biol. Chem. 272: 13899–13903.

papain [5] = molecular target: T2, papain; assay: continuous rate enzyme inhibition assay with papain; Ki = kd/ka
cathepsin D [6] = molecular target: T3, cathepsin D (Homo sapiens, UniProt P07339); assay: steady state inhibition of cathepsin D hydrolysis of chromophoric substrate
cathepsin D [7] = molecular target: T3, cathepsin D; assay: active site titration of cathepsin D with equistatin (FIG. 12)
[8] = molecular target: proteases in extracts of adult leafminer flies (Liriomyza trifolii); assay: cell-based or functional assay
[9] = molecular target: potato protease inhibitor-insensitive cysteine proteases of Colorado potato beetle (Leptinotarsa decemlineata) larval gut extracts; assay: cell-based or functional assay
[10] = molecular target: proteases in extracts of adult western flower thrips (Frankliniella occidentalis); assay: cell-based or functional assay
papain [11] = molecular target: T2, papain; assay: continuous rate enzyme inhibition assay with papain
cysteine proteases = conditions: Yamashita and Konagaya (1996); cited from earlier work

Molecule: β-trypsin
- limited proteolysis, reverse-phase HPLC and N-terminal sequencing [1]: equistatin was found to be a good substrate for trypsin

B1: recombinant equistatin (expressed in E. coli from pB3-equistatin, purified on papain-sepharose) (other, not shown: large carriers; small tags and cut ends)
chain: SLTKCQQLQASANSGLIGTYVPQCKETGEFEEKQCWGSTGYCWCVDEDGKEILGTKIRGSPDCSRRKAALTLCQMMQAIIVNVPGWCGPPSCKADGSFDEVQCCASNGECYCVDKKGKELEGTRQQGRPTCERHLSECEEARIKAHSNSLRVEMFVPECLEDGSYNPVQCWPSTGYCWCVDEGGVKVPGSDVRFKRPTC
notes: also called EI
- residual protease activity (FITC-hemoglobin), pH 3 (% residual activity) [2]: 2
- residual protease activity (FITC-hemoglobin), pH 6.5 (% residual activity) [2]: 7
- inhibition of total protease activity (FITC-hemoglobin), pH 3 [3]: 62 % inhibition
- residual protease activity (FITC-hemoglobin), pH 3 (% residual activity) [3]: 36
- Ki (papain [4]): 0.6 nM

B2: equistatin, isolated from sea anemone Actinia equina (protein)
chain: T1 sequence
- Ki (papain [5]): 0.57 nM
- Ki (cathepsin D [6]): 0.3 nM
- binding stoichiometry (mol equistatin per mol cathepsin D) (cathepsin D [7]): 1
- residual protease activity (FITC-hemoglobin), pH 3.5 (% residual activity) [8]: 24
- residual amino-peptidase activity (L-Arg-pNA), equimolar inhibitor (% of residual activity) [9]: 85
- residual amino-peptidase activity (L-Arg-pNA), excess inhibitor (% of residual activity) [9]: 75
- residual broad spectrum endoprotease activity (Z-Phe-Arg-pNA), equimolar inhibitor (% of residual activity) [9]: 30
- residual broad spectrum endoprotease activity (Z-Phe-Arg-pNA), excess inhibitor (% of residual activity) [9]: 20
- residual general proteolytic activity (azocasein) in excess of inhibitor (% residual activity) [9]: 10
- residual narrow spectrum endoprotease activity (Z-Arg-Arg-pNA), equimolar inhibitor (% of residual activity) [9]: 20
- residual narrow spectrum endoprotease activity (Z-Arg-Arg-pNA), excess inhibitor (% of residual activity) [9]: -5
- residual tri-peptidil-peptidase and endoprotease activity (pGlu-Phe-Leu-pNA), equimolar inhibitor (% of residual activity) [9]: 10
- residual tri-peptidil-peptidase and endoprotease activity (pGlu-Phe-Leu-pNA), excess inhibitor (% of residual activity) [9]: -5
- residual protease activity (FITC-hemoglobin), pH 3.5 (% residual activity) [10]: 5
- koff (papain [11]): 0.0065 s⁻¹
- kon (papain [11]): 1.2e+07 M⁻¹ s⁻¹

B3: entactin: protein with domains homologous to type I repeated thyroglobulin domains (protein, UniProt P14543 29-1247, looked up)
Nidogen-1: LSRQELFPFGPGQGDLELEDGDDFVSPALELSGALRFYDRSDIDAVYVTTNGIIATSEPPAKESHPGLFPPTFGAVAPFLADLDTTDGLGKVYYREDLSPSITQRAAECVHRGFPEISFQPSSAVVVTWESVAPYQGPSRDPDQKGKRNTFQAVLASSDSSSYAIFLYPEDGLQFHTTFSKKENNQVPAVVAFSQGSVGFLWKSNGAYNIFANDRESVENLAKSSNSGQQGVWVFEIGSPATTNGVVPADVILGTEDGAEYDDEDEDYDLATTRLGLEDVGTTPFSYKALRRGGADTYSVPSVLSPRRAATERPLGPPTERTRSFQLAVETFHQQHPQVIDVDEVEETGVVFSYNTDSRQTCANNRHQCSVHAECRDYATGFCCSCVAGYTGNGRQCVAEGSPQRVNGKVKGRIFVGSSQVPIVFENTDLHSYVVMNHGRSYTAISTIPETVGYSLLPLAPVGGIIGWMFAVEQDGFKNGFSITGGEFTRQAEVTFVGHPGNLVIKQRFSGIDEHGHLTIDTELEGRVPQIPFGSSVHIEPYTELYHYSTSVITSSSTREYTVTEPERDGASPSRIYTYQWRQTITFQECVHDDSRPALPSTQQLSVDSVFVLYNQEEKILRYALSNSIGPVREGSPDALQNPCYIGTHGCDTNAACRPGPRTQFTCECSIGFRGDGRTCYDIDECSEQPSVCGSHTICNNHPGTFRCECVEGYQFSDEGTCVAVVDQRPINYCETGLHNCDIPQRAQCIYTGGSSYTCSCLPGFSGDGQACQDVDECQPSRCHPDAFCYNTPGSFTCQCKPGYQGDGFRCVPGEVEKTRCQHEREHILGAAGATDPQRPIPPGLFVPECDAHGHYAPTQCHGSTGYCWCVDRDGREVEGTRTRPGMTPPCLSTVAPPIHQGPAVPTAVIPLPPGTHLLFAQTGKIERLPLEGNTMRKTEAKAFLHVPAKVIIGLAFDCVDKMVYWTDITEPSIGRASLHGGEPTTIIRQDLGSPEGIAVDHLGRNIFWTDSNLDRIEVAKLDGTQRRVLFETDLVNPRGIVTDSVRGNLYWTDWNRDNPKIETSYMDGTNRRILVQDDLGLPNGLTFDAFSSQLCWVDAGTNRAECLNPSQPSRRKALEGLQYPFAVTSYGKNLYFTDWKMNSVVALDLAISKETDAFQPHKQTRLYGITTALSQCPQGHNYCSVNNGGCTHLCLATPGSRTCRCPDNTLGVDCIEQK
- inhibition of cysteine proteases (cysteine proteases): do not inhibit

— patent US6861578B1, “Method for plant protection against insects or nematodes by transformation with a nucleic acid encoding equistatin” (Plant Research International B.V., priority 1997, dated 2005)
